Holding throughout (assay): two-hybrid library CCNG1;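 further: natural log of median RNA to DNA barcode read ratio; higher means stronger binding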
Assay [1] deals with T1, O6-bS.
T1 chain: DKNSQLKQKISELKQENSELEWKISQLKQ

Assay [2] concerns the target T2, O16-bS.
T2 chain: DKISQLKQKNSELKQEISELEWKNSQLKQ

Assay [3] has as its target T3, O3-bS.
T3 chain: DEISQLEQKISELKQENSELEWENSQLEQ

Assay [4] addresses T4, O13-bS.
T4 chain: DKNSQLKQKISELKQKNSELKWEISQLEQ

The target in assay [5] is T5, O12-bS.
T5 chain: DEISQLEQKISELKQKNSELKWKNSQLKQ

The target of assay [6] is T6, O10-bS.
T6 chain: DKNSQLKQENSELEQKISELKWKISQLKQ
The note with it: mean of both orientations.

Assay [7] deals with T7, O5-bS.
T7 chain: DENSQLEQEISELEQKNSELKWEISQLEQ

Assay [8] addresses T8, O7-bS.
T8 chain: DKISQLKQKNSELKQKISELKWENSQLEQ

Assay [9] deals with T9, O2-bS.
T9 chain: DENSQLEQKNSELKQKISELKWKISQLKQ

The target of assay [10] is T10, O8-bS.
T10 chain: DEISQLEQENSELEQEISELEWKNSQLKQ

Assay [11] concerns the target T11, O15-bS.
T11 chain: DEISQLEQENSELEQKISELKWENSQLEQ

In assay [12] the target is T12, O11-bS.
T12 chain: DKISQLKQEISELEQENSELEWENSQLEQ

Assay [13] concerns the target T13, O9-bS.
T13 chain: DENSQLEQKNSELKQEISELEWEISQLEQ

Assay [14] addresses T14, O4-bS.
T14 chain: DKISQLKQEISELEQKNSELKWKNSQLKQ

Assay [15] deals with T15, 4H2503-bN.
T15 chain: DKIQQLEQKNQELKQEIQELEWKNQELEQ

Assay [16] concerns the target T16, 4H477-bN.
T16 chain: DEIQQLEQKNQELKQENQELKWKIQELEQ

Assay [17] addresses T17, 4H741-bN.
T17 chain: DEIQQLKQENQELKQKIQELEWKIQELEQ

The target of assay [18] is T18, 4H3057-bN.
T18 chain: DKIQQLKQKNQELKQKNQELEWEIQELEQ

The target in assay [19] is T19, 4H40-bN.
T19 chain: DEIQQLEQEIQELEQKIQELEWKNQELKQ

Assay [20] addresses T20, 4H2692-bN.
T20 chain: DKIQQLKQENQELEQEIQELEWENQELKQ

Assay [21] has as its target T21, 4H2588-bN.
T21 chain: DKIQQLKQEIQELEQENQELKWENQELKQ

The target in assay [22] is T22, 4H2143-bN.
T22 chain: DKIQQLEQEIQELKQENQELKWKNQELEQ
The note with it: mean of both orientations.

The target in assay [23] is T23, 4H348-bN.
T23 chain: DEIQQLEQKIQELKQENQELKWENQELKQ

Assay [24] concerns the target T24, 4H2438-bN.
T24 chain: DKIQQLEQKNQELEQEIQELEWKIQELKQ

Assay [25] concerns the target T25, 4H2915-bN.
T25 chain: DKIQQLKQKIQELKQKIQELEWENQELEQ

In assay [26] the target is T26, 4H2134-bN.
T26 chain: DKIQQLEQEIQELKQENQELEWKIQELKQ

Assay [27] concerns the target T27, 4H492-bN.
T27 chain: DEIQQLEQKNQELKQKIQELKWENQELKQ

In assay [28] the target is T28, 4H3277-bN.
T28 chain: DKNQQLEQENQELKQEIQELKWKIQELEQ

For assay [29], the target named is T29, 4H2717-bN.
T29 chain: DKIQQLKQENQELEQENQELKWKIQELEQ

In assay [30] the target is T30, 4H319-bN.
T30 chain: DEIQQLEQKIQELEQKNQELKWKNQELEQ

Assay [31] concerns the target T31, 4H2223-bN.
T31 chain: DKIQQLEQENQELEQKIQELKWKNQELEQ

Assay [32] concerns the target T32, 4H2839-bN.
T32 chain: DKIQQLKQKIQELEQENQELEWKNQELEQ

Assay [33] concerns the target T33, 4H2473-bN.
T33 chain: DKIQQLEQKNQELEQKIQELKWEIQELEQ

Assay [34] deals with T34, O14-bS.
T34 chain: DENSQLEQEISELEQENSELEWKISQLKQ

Assay [35] addresses T35, 4H72-bN.
T35 chain: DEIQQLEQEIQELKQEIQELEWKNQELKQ

Assay [36] concerns the target T36, 4H2576-bN.
T36 chain: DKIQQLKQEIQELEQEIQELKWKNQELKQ

The target of assay [37] is T37, 4H607-bN.
T37 chain: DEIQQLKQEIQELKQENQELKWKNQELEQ

Assay [38] addresses T38, 4H3112-bN.
T38 chain: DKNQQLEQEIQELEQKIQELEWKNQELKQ

Assay [39] has as its target T39, 4H568-bN.
T39 chain: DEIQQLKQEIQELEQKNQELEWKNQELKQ

Assay [40] addresses T40, 4H1828-bN.
T40 chain: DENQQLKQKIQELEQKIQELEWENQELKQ

Assay [41] addresses T41, 4H883-bN.
T41 chain: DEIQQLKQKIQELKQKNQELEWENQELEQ

Assay [42] addresses T42, 4H2618-bN.
T42 chain: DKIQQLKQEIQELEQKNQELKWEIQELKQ

Assay [43] addresses T43, 4H454-bN.
T43 chain: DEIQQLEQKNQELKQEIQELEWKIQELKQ

The target of assay [44] is T44, 4H338-bN.
T44 chain: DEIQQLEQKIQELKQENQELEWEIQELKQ

For assay [45], the target named is T45, 4H1845-bN.
T45 chain: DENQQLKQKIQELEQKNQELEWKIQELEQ

Assay [46] concerns the target T46, 4H908-bN.
T46 chain: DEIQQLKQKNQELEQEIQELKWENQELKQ

For assay [47], the target named is T47, 4H967-bN.
T47 chain: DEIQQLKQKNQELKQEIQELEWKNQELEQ

Assay [48] deals with T48, 4H918-bN.
T48 chain: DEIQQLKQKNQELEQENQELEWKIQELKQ

The target of assay [49] is T49, 4H3185-bN.
T49 chain: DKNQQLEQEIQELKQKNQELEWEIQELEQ

Assay [50] concerns the target T50, 4H2729-bN.
T50 chain: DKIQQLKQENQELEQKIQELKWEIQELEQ

Assay [51] addresses T51, 4H953-bN.
T51 chain: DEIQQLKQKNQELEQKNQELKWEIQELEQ

Assay [52] addresses T52, 4H2697-bN.
T52 chain: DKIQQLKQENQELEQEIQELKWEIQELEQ

For assay [53], the target named is T53, 4H4001-bN.
T53 chain: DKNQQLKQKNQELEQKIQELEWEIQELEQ

The target in assay [54] is T54, 4H687-bN.
T54 chain: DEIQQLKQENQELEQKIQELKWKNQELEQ

Assay [55] has as its target T55, 4H717-bN.
T55 chain: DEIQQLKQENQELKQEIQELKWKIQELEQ

Assay [56] addresses T56, 4H331-bN.
T56 chain: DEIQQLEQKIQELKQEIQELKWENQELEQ

Assay [57] has as its target T57, 4H797-bN.
T57 chain: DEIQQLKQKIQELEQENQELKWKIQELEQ

Assay [58] has as its target T58, 4H3855-bN.
T58 chain: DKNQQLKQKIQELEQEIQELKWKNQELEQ

For assay [59], the target named is T59, 4H3427-bN.
T59 chain: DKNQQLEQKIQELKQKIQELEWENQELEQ

For assay [60], the target named is T60, 4H2667-bN.
T60 chain: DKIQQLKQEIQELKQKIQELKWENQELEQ

Assay [61] deals with T61, 4H2442-bN.
T61 chain: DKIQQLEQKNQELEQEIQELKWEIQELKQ

Assay [62] deals with T62, 4H754-bN.
T62 chain: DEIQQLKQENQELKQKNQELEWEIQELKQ

In assay [63] the target is T63, 4H3354-bN.
T63 chain: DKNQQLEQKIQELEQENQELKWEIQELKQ

Assay [64] addresses T64, 4H3782-bN.
T64 chain: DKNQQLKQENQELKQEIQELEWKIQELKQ

Like-named read-outs stand apart in the source and are kept apart here.

On to DKNSQLKQENSELEQKISELKWKISQLKQ [O10-bS], for which the interaction score in [1] was -0.631; in [2] it was -0.405; in [3], -0.954; in [4] it was -0.797; in [5] it was -2.63; in [6] it was -1.52. For the same molecule, the interaction score in assay [7] is -1.67; in assay [8], -0.783; in [9], -1.55; in assay [10], -1.24; in assay [11], 0.0876; in assay [12], -2. Besides, the interaction score is 0.492 in [13] (mean of both orientations) and -0.565 in assay [14].

Consider DKIQQLEQEIQELKQENQELEWKIQELKQ [4H2134-bN], for which the interaction score in [15] was -0.659; in assay [16], 0.581; in assay [17], 0.14; in assay [18], 0.93; in assay [19], -0.166; in assay [20], 0.473. The interaction score in assay [21] was -0.119; in assay [22], 0.912; in [23], -0.138; in assay [24] it was 0.477; in assay [25] it was -1.35; in assay [26] it was 1.45. For the same molecule, the interaction score in assay [27] was -1.68; in assay [28], -0.911; in [29], -0.26; in [30], 0.833; in assay [31] it was -0.162; in [32], 0.142. Further, in [33], the interaction score was determined as 0.214.

Regarding DKISQLKQEISELEQENSELEWENSQLEQ [O11-bS], the interaction score in assay [1] is -0.902; in assay [2] it was -0.701; in [3] it was -1.25; in assay [4], -0.61; in assay [5] it was 1.88; in assay [7] it was -2.35. The interaction score was -1.17 in assay [8]; -2.92 in assay [34]; -0.471 in [9]; -3.31 in assay [10]; -0.753 in assay [11]; -1.25 in assay [12]. Further, the figures for the interaction score in assay [13] and in assay [14] were -2.56 and 0.272, respectively.

DENQQLKQKIQELEQKIQELEWENQELKQ [4H1828-bN]: the interaction score in assay [35] was 0.18; in assay [36] it was 1.52; in assay [37] it was -0.0859; in [38] it was 0.443; in [39], -0.67; in assay [40], 1.19. In addition, the interaction score in assay [41] is -0.284; in assay [42], 0.00935; in assay [43], -1.22; in [44], -0.738; in assay [45], -0.541; in assay [46], -1.28. The interaction score was -0.704 in assay [47]; -1.16 in assay [48]; -0.135 in [49]; -0.165 in [50]; -0.334 in assay [51]; -0.202 in assay [52]. The interaction score is -0.709 in assay [53]; -0.773 in assay [54]; -0.318 in assay [55]; 0.0332 in [56]; -1.07 in [57]; 0.0633 in assay [58]. Besides, the interaction score in assay [59] is -0.728; in assay [60] it was 1.18; in assay [61] it was -0.746; in assay [62], -2.15; in assay [63] it was -1.74; in assay [64], 0.26.

Values taken from publication PMC10397247.
